This experiment can be described thus: Estimation of binding affinity by Octet. From the text:
Murine R24 (mR24) is a murine antibody that binds GD3 (SEQ ID NOs: 17 and 19). To minimize the risk of immunogenicity, an attempt was made to humanize mR24 for further therapeutic development. An earlier attempt to humanize mR24 is disclosed in WO2008/101234. The CDRs of murine antibody mR24 were identified using Kabat. Humanization of mR24 was first attempted using the semi-empirical framework shuffle approach. In this approach, human germline frameworks with a high degree of homology with mR24 sequences, VL frameworks V1-12 and V3-11 and VH framework V3-7, were selected. The selected frameworks were then used as the acceptor framework for mR24 without any backmutations in the framework region. The CDRs of mR24 were then inserted into the acceptor frameworks, and antibody proteins were generated and assessed for their expression yield, purification properties, and GD3 target binding activity. After screening, two advanced humanization variants with high GD3 binding activity, overall expression yields, and stability, hAb 21 (SEQ ID NOs: 30 and 31, VL framework V3-11 and VH framework V3-7) and hAb3 (SEQ ID NOs: 32 and 33, VL framework V1-12 and VH framework V3-7), were further evaluated for their aggregation level after purification.

Setting [1] is: antibody concentrated (Ab 3 21.2 mg/ml, hAb 21 27.8 mg/ml), in Tier-1 buffer.

Where two headings read alike, the source gives them in different places.

As a reminder, the Kd is the free concentration of one partner at which half of the binding sites on the other are occupied at equilibrium, for simple one-to-one binding.

B1: hAb 3: fully humanized mR24 based on framework shuffle (SEQ ID NOs: 32 and 33, VL framework V1-12 and VH framework V3-7) (antibody, V domains shown)
VH: EVQLVESGGGLVQPGGSLRLSCAASGFTFSNFGMHWVRQAPGKGLEWVAYISSGGSSINYADTVKGRFTISRDNAKNSLYLQMNSLRAEDTAVYYCARGGTGTRSLYYFDYWGQGTLVTVSS
VL: DIQMTQSPSSVSASVGDRVTITCRASQDIGNFLNWYQQKPGKAPKLLIYYTSRLQSGVPSRFSGSGSGTDFTLTISSLQPEDFATYYCQQGKTLPYTFGGGTKVEIK
For the molecule B1, under setting [1], the dissociation constant (Kd) was 59.7 nM, the Kdis is 0.00278 s⁻¹ and the Kon was 75400 M⁻¹ s⁻¹. Besides, where the note is “antibody dialyzed in PBS”, the Kd is 55.8 nM, the Kdis was 0.00144 s⁻¹ and the Kon is 37700 M⁻¹ s⁻¹.

B2: hAb 21: fully humanized mR24 based on framework shuffle (SEQ ID NOs: 30 and 31, VL framework V3-11 and VH framework V3-7) (antibody, V domains shown)
VH: EVQLVESGGGLVQPGGSLRLSCAASGFTFSNFGMHWVRQAPGKGLEWVAYISSGGSSINYADTVKGRFTISRDNAKNSLYLQMNSLRAEDTAVYYCARGGTGTRSLYYFDYWGQGTLVTVSS
VL: EIVLTQSPATLSLSPGERATLSCRASQDIGNFLNWYQQKPGQAPRLLIYYTSRLQSGIPARFSGSGSGTDFTLTISSLEPEDFAVYYCQQGKTLPYTFGGGTKVEIK
On to B2, for which, under setting [1], the equilibrium dissociation constant (Kd) was 31.1 nM, the Kdis is 0.00111 s⁻¹ and the Kon is 44600 M⁻¹ s⁻¹. Where the note is “antibody dialyzed in PBS”, the dissociation constant Kd is 28.9 nM, the Kdis was 0.00136 s⁻¹ and the Kon is 59700 M⁻¹ s⁻¹.

B3: KM871: chR24 (hAb.51) chimeric version (hIgG1, kappa) of KM641 (SEQ ID NOs: 28 and 29) (antibody, V domains shown)
VH: EVTLVESGGDFVKPGGSLKVSCAASGFAFSHYAMSWVRQTPAKRLEWVAYISSGGSGTYYSDSVKGRFTISRDNAKNTLYLQMRSLRSEDSAMYFCTRVKLGTYYFDSWGQGTTLTVSS
VL: DIQMTQTASSLPASLGDRVTISCSASQDISNYLNWYQQKPDGTVKLLIFYSSNLHSGVPSRFSGGGSGTDYSLTISNLEPEDIATYFCHQYSKLPWTFGGGTKLEIK
On to B3, for which the Kd was 9.02 nM, the Kdis is 0.00596 s⁻¹ and the Kon was 1.33e+06 M⁻¹ s⁻¹.

The values are drawn from US20190048073A1, “ANTI-GD3 ANTIBODIES AND ANTIBODY-DRUG CONJUGATES” (Pfizer Inc., priority 2017, published 2019).
